Results published in the DeepSol protein solubility set.

Experiment: soluble on expression in E. coli; label from the status in PepcDB or PDB records

Row | Sequence | soluble on expression in E. coli
1 | MVKETKFYDILGVPVTATDVEIKKAYRKCALKYHPDKNPSEEAAEKFKEASAAYEILSDPEKRDIYDQFGEDGLSGAGGAGGFPGGGFGFGDDIFSQFFGAGGAQRPRGPQRGKDIKHEISASLEELYKGRTAKLALNKQILCKECEGRGGKKGAVKKCTSCNGQGIKFVTRQMGPMIQRFQTECDVCHGTGDIIDPKDRCKSCNGKKVENERKILEVHVEPGMKDGQRIVFKGEADQAPDVIPGDVVFIVSERPHKSFKRDGDDLVYEAEIDLLTAIAGGEFALEHVSGDWLKVGIVPGEVIAPGMRKVIEGKGMPIPKYGGYGNLIIKFTIKFPENHFTSEENLKKLEEILPPRIVPAIPKKATVDECVLADFDPAKYNRTRASRGGANYDSDEEEQGGEGVQCASQ | not soluble
2 | MVKGPGLYTEIGKKARDLLYKDHNSDQKFSITTFSPAGVAITSTGTKKGDLLLGDVAFQSRRKNITTDLKVCTDSTFLITATVDEAAPGLRSIFSFKVPDQNSGKVELQYLHEYAGISTSMGLTQNPTVNFSGVIGSNVLAVGTDVSFDTKSGNFTKINAGLSFTKEDLIASLTVNDKGDLLNASYYHIVNPLFNTAVGAEVSHKLSSKDSTITVGTQHSLDPLTSVKARVNSAGIASALIQHEWKPKSFFTISGEVDTKSIDKSAKVGLALALKP | soluble
3 | MVLAVKVQIKEGEKVRRKLIELGALNREYKIKREEGFLLIPVKFPVEGFEVVEVELERVETRPNSYKDVVNIPRELRKFLPSSFDIIGNIAIIEIPSELQNYSNEIGGAIIRVHKSVKAVYMKGGSVEGEYRVRNLIHIAGEKITETIHRENGVRLKLDITKVYFSPRLATERMRVFKMAREGEIVFDMFAGVGPFSILLAKKARMVFACDINPWAIKYLEENIKLNKVKNIIPILSDVTKVCVKADRIIMNLPKYASRFLEHAMRCVNNGGIIHYYGFGPEKDPYGWHVKRINEVAGRLGVKVEILGKRIIRNYAPRQYNIAIDFRVSF | soluble
4 | MVLFSEDHIQETRRRGRIEVICGSMFSGKTEELIRRMKRAKFARQRVEIFKPAIDTRYSEEDVVSHDSHSIASTPIDSSASILLFTSEIDVVGIDEAQFFDDGLIDVCRQLANNGIRVIIAGLDMDFKGNPFGPMPQLCAIADEVSKVHAICVKCGDLASFSHRTVKNDKQVLLGETAEYEPLCRECYLRARGEDGQKI | not soluble
5 | MVLGTVLLPPNSYGRDQDTSLCCLCTEASESALPDLTEALHRPYGCDVEPQALNEAIRWSSKENLLGATESDPNLFVALYDFVASGDNTLSITKGEKLRVLGYNQNGEWSEVRSKNGQGWVPSNYITPVNSLEKHSWYHGPVSRSAAEYLLSSLINGSFLVRESESSPGQLSISLRYEGRVYHYRINTTADGKVYVTAESRFSTLAELVHHHSTVADGLVTTLHYPAPKCNKPTVYGVSPIHDKWEMERTDITMKHKLGGGQYGEVYVGVWKKYSLTVAVKTLKEDTMEVEEFLKEAAVMKEIKHPNLVQLLGVCTLEPPFYIVTEYMPYGNLLDYLRECNREEVTAVVLLYMATQISSAMEYLEKKNFIHRDLAARNCLVGENHVVKVADFGLSRLMTGDTYTAHAGAKFPIKWTAPESLAYNTFSIKSDVWGKVERDFFLCHFIFFFINALIL | soluble
6 | MVLLVNIDDNEKWDNTVKGFENFDVYYLSGYVKAFHAHGDGEPKLFFYEDSNIKAINVFMKRDIEKDQNFSGKIPPNTFYDAATPYGYGGFLIEGNVTDESLRTLEKEYSELCLNEGIISEFVRFHPVINNSGTVSSIYDILELGRTVTIELDSREKVWEGFAGNNRNKVRKAKKSGVEIFWGRSPKLFDTFIPMYNETMDNDGASGYYYFKKDFYNSILEDLKYNSLIFYAVFEDRIISMSIILFANKQMHYHLSATDREYRNLAPTNLLLYEAACWGIENGYKTFHLGGGLGSREDSLYQFKKGFNKNSSTYFCIGKKIFDKEKYDELIKIRKQDPYFDENKLFFPLYRG | not soluble
7 | MVLPKKEFVLSHTFTDVSKMEKDISVFSPGEEHFNVSWNMSISCEGDHLGVFLHCHKSRGKETMWTIDTEHQFTLKTSSGKAYREDDNFNFQFSNAHSYGNGTTEFISWNKLIKDYLIDDVITVEAAVKIIKTTGISKKALKGFEKSNEEFSDVVLAVGDKEFFVLKQFLAYHSSYFKSLLLGKFAESDQKEVTLQDIDPTDFQNLLEVLYGEPAIDDETIDGILHLAHMYDMSVPLRKCEEFLINESEKSMKDQLKIAKQYQLEKLKKACLLKINTVDEIKAAVAGKLSDMDPTVVAALF | not soluble
8 | MVLRKLSTYRQKRDFEKTPEPSGEAAVASSKQRRFVIQKHDASRLHYDFRLEFDGVFKSWAVTKGPSLDPHDKRLAVEVEDHPLDYGDFEGTIPEGQYGGGTVMLWDRGTWEADDPERGFKKGDLKFTLHGEKLHGSWVLVRMRNDRDGGKRTNWLLIKHRDEYAREGEDILAEDKSVASGRAMAQILEHHHHHH | soluble
9 | MVLSQTHHHHHRHEGNDRSLISILTDPIVNLFRSIPIEILDQNEELSPSQKDFLDDFLELQNDSDLEESEDFIQESQEVVSSVDDEIKVILNEIINQVETETQLIPKIIIHSDDAEVPEESIEIAVQSFGCPLDSFSGLSDSGVDLTVDDVPDDEDDEITVQTFESTPKELPTVTKFTNCTFIRSQSSARCKAILPDTTYICTLPPVSATFSAPVVTPKKIVKRKKSTSAAAKMAAEVLQNEPHCFIAPSSSIDRPFKLLVQKETFLIDAESMSRISPIFNVMCFGKDFEKMDLSREIVDEKSNDIDCFLRAVHDTSMINSSNFALVLRLSNKYQVDPVIDACQNFIIRQHLDVLRADEILTMLIAAFEHHCKREVVQKLIKRLASEGNSVFTKLKISRYLPAQVYGSVISTSMNLNQAKEHELMNGHVLKMERSKIRWRQSVCEECKSVAECANCEECKKTVCRNHVSKLKCSSDYGAKLAADLKKKIVDFEWQD | not soluble
10 | MVLTGVTSKAIRKGDAEPPLSKGSFRVYNMRFCPWAERAMLYVAAKGIEAEVVNLNVTDKLEWYWTKHYQGKAPAVEHNGKVVIESGFIPEYLDDAFPETRILPTDPYEKVQQKLLADRLTAVAHAVPLLFAVMRDRTLKDEKQRKVFEVLKQAENLLANDFYAGSQPGYPDYLSFPFFEKIWWSASLDGVVDLPTIEFPGEEEYPKLTKWFQKMISSDVVQSVTQSLEHGAAFMNAYATHQELNYDLGL | not soluble
11 | MVLVLDFGSQYTRLIARRLRELRAFSLILPGDAPLEEVLKHRPQALILSGGPRSVFDPDAPRPDPRLFSSGLPLLGICYGMQLLAQELGGRVERAGRAEYGKALLTRHEGPLFRGLEGEVQVWMSHQDAVTAPPPGWRVVAETEENPVAAIASPDGRAYGVQFHPEVAHTPKGMQILENFLELAGVKRDWTPEHVLEELLREVRERAGKDRVLLAVSGGVDSSTLALLLAKAGVDHLAVFVDHGLLRLGEREEVEGALRALGVNLLVVDAKERFLKALKGVEDPEEKRKIIGREFVAAFSQVARERGPFRFLAQGTLYPDVIESAGGHGAAKIKSHHNVGGLPEDLEFELLEPFRLLFKDEVRELALLLGLPDTLRLRHPFPGPGLAVRVLGEVTEERLEILRRADDIFTSLLRERGLYEKVAQALAVLTPVRSVGVAGDERKYGYVLALRAVTTEDFMTADWARLPLEFLDEAARRITRRVPEIGRVVYDLTSKPPATIEWE | soluble
12 | MVMSQKTLFTKSALAVAVAIISTQAWSAGFQLNEFSSSGLGRAYSGEGAIADDAGNVSRNPALITMFDRPTFSAGAVYIDPDVNISGTSPSRRTLDADNIAPTAWVPNVHFVAPINDQFGWGASITSNYGLATEFNDTYAGGSVGGTTDLETMNLNLSGAYRLNEAWSFGLGFDAVYARAKIERFAGDLGQLVAAQNPALAPVAGQIPSDTKIAHLNGNQWGFGWNAGILYELDKNNRYALTYRSEVKIDFKGNYSSDLPIAINRFNLPIPTATGGATQSGYLTLNLPEMWEVSGYNRVAPQWAIHYSLAYTSWSQFQELKAKSTAGDTLFEKHEGFKDAYRIALGTTYYYDDNWTFRTGIAFDDSPVPAQNRSISIPDQDRFWLSAGTTYAFNKDASVDVGVSYMHGQSVKINEGPYQFESEGKAWLFGTNFNYAF | not soluble
13 | MVMVLDSLGRALSNALKKIARAGSVDEALVKEVVRDIQRALLQADVNVRLVLKLTKEIQRRALEEKPPAGISKKEHIIKIVYEELTKFLGTEAKPIEIKEKPTVLLTVGVQGSGKTTTVAKLARYFQKRGYKVGVVCSDTWRPGAYHQLKQLLDPYHIEVFGDPNEKDAVKLAKEGVEYFKTRDVDLIIVDTAGRHKEEKDLIEEMRMISEEIRPHEVILVIDGTIGQQAYNQALAFKEATPIGSIIVTKLDSSAKGGGALSAVAATGAPIKFIGVGEKIDDLEPFDPARFVSRLLGLGDIQGLLEKFKELEKEVEFTEEDIDRFLRGKFTLKDMYAQLEAMRKMGPLKQILRMIPGLGYSLPDELISVGEERLRKFKVIMDSMTEEELMNPEIINYSRIKRIARGSGTSIKDVKELLTQYNQMKKFFKSMNKRQLSRLARRFGM | soluble
14 | MVNGDGNPREVIEDLAANNPAIQNIRLRHENKDLKARLENAMEVAGRDFKRAEELEKAKQALEDQRKDLETKLKELQQDYDLAKESTSWDRQRLEKELEEKKEALELAIDQASRDYHRATALEKELEEKKKALELAIDQASQDYNRANVLEKELE | soluble
15 | MVNKRTVTELSLFAGLIVSMHVAYYTIQNNPSLVAPHQRQELFYVRWLKEKIPALRPYGVTDDKTPKADQ | not soluble
16 | MVNREIVMDYILSCLQDLVENGVEIKPDSDLVNDLGLESIKVMDLLMMLEDRFDISIPINILLDVKTPAQLMETLLPWLENK | not soluble
17 | MVQEIEQWLRRHQVFTEPAYLGETAILLGQQFILSPYLVIYRIEAKEMIICEFRRLTPGQPRPQQLFHLLGLLRGIFVHHPQLTCLKMLIITDVLDEKKAMLRRKLLRILTVMGATFTQLDGDNWTVLSAEHLIQRRF | not soluble
18 | MVQNDETQYIARILDGDTECFSAFLDRYSRPLYVLIVQIVGCSEDAEELVQDVFLKAFRCLGSYRGECRFSTWLYRIAYTTAVSATRKKKQEFLYIEENTINNVPDEKADDILYPTDDEERTARLIQAIDLLNVEEKALITLFYYEEKSIEEIGEVLKLSPGNVKVKLHRTRKKIYVLMNGKE | not soluble
19 | MVQPDDVLLGRYKIRFDIGPGRIGRIFAVLDQQDQSRSRVKVIKVLPMVAGEQFLDDPQTYNEFDFLNHLRGTIGVPNIIQHFQVGRERVMMMDKYLATLEQFRTRCDDRRISDLNIIKIAVRLVNVLEAIHQKGVIHRDLKTTNVMIRSRGQSEVNLVLIDYGLSTFNGTPPRALAPDAKSPEIMFRGHTHVSPALEEGLKADAVDDLQMLAIMLIWCSAYHPFGPIGQESSRKKAEFITNPVKYVKGRPFLRPLMTAIMAQPRGTRPNYQAILDAAAGPFPIDDIRDSLKTEISLLGVRFL | not soluble
20 | MVQVGAAAINRVDVAVIGGGIAGVAIAEYVARHTNLSVQLLEQNSHLGGDSSGKLEGWFHTGALYSGQDDGQTFFNCVNGVEDLLNHYSHYFAGRCNLTLEQFDHGYRPTVTGAGWFDPNPVYLIHPQRHSPEMLQSGLKGDRVQLEMQLKRVLGRLEMAYGQQFNWRSPTGNGAVAPDYDHLESYEQRSCSLLGQSEKISHYCQQFDLSHGVKPSDYALLKSLDCAMDTQGILQDLTASALAHGTAIATGINLEQINVDRYGPVRVQSIFYRDCQGQQHYLKAKAFIFAVGAGFERILPTLQVRAKLKQSRSTMVVAYPAISSHNFVRMSTKNSYHFNHFFQRANIPDSSEFLNYSMLANSGYVSNENDYLASGEIELLLDTAARYFSEENLYQRQLWSYDCVKTEFISDDAQKRRYSYWIEVNPQSNYLCVLPGKFSFFPTVAVQTLKQLKTILPTEEVDRSHRDYSAHYHQAQALVASPYPHQLLASYWKNNANSLEHHHHHH | soluble
